Assay [1] has as its target T1, R59Q-variant RGS12 PDZ domain GST-fusion protein (Homo sapiens, UniProt O14924, R59Q).
T1 construct: human RGS12 PDZ domain (aa 18–101 of UniProt O14924); purchased GenScript; host or cells: E. coli
T1 sequence (O14924 18-101 R59Q): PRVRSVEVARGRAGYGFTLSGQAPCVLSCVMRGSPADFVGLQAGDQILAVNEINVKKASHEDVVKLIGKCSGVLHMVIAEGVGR
As to the kind of experiment: SPR single-cycle kinetics (Alto), R59Q-variant PDZ domain. In kind it is binding. Conditions: R59Q vs wildtype; peptide biosensors; N = 2-4. The procedure:
Wildtype and R59Q-variant versions of the human RGS12 PDZ domain (aa 18–101 of UniProt O14924) were each cloned in frame with an N-terminal glutathione-S-transferase (GST) expression tag, expressed by E. coli fermentation, and purified by GST-affinity column and size-exclusion column chromatographies by GenScript. These recombinant GST-fusion proteins were stored at −80 °C in a storage buffer (150 mM NaCl, 10 mM Tris-HCl pH 7.6, 1 mM EDTA, 5 mM DTT, and 10% glycerol) prior to thawing and supplementation with 0.1% (final) Tween 20 for use in the SPR experiments.
Biotinylated peptides were separately immobilized onto streptavidin-coated gold nanosensor particles (Nicoya) in lane pairs. The reference sensor of the lane held either immobilized mNotch1 or rβ2AR peptide as an established negative control surface, and the test sensor held one of the candidate PDZ domain-interacting peptides. All on-board dilutions and experimental passages of analytes over immobilized peptides were performed with a running buffer consisting of phosphate-buffered saline (137 mM NaCl, 2.7 mM KCl, 4.3 mM disodium phosphate, 1.4 mM monopotassium phosphate; and pH 7.3, from Teknova) supplemented with 0.1% Tween 20 (Nicoya), […] (w/v) bovine serum albumin (BSA; Nicoya), and 3% glycerol (the latter to reduce bulk-shift readings when transitioning from running buffer to protein analyte injections). […] Each sensor was regenerated between each single-stack passage by the injection of a surface regeneration buffer (10 mM NaOH). Non-specific binding to the paired, negative control peptide-bound streptavidin surface was subtracted from each single-stack curve and then binding parameters of the on-rate (ka), off-rate (kd), and dissociation constant (KD) were calculated using the 1:1 Langmuir kinetics model with mass transport limitation (Alto software version 2.3.1; Nicoya). Observed maximal response units (Rmax) and calculated KD values for each single-stack injection were plotted using GraphPad Prism 10.

For assay [2], the system named is recombinant RGS12 PDZ domain protein. The conditions noted are these: biotinylated peptide immobilized on streptavidin chip to 350 RU; 10 mM HEPES pH 7.4, 250 mM NaCl, 0.05% Nonidet P-40, 50 μM EDTA; analyte 300 μM (10 nM to 500 μM); mNotch1 surface subtracted.
Procedure: Optical detection of real-time protein–peptide interactions by surface plasmon resonance was performed using a Biacore 3000 (Cytiva; Marlborough, MA, USA), as per previously described methods [65, 105, 106]. Briefly, biotinylated peptides were separately immobilized on streptavidin-coated SPR chips (Cytiva) to 350 resonance units (RUs). All experiments were performed with the sensor surface, fluidics, and pump equilibrated with Biacore running buffer (10 mM HEPES pH 7.4, 250 mM NaCl, 0.05% (v/v) Nonidet P-40, and 50 μM EDTA). Increasing concentrations (10 nM to 500 μM) of recombinant RGS12 PDZ domain protein (expressed from E. coli culture and purified as previously described in ref. [65]) were separately injected at a flow rate of 10 μL/min with a 300 s dissociation phase. The surface was regenerated between each test concentration by the injection of a denaturing regeneration buffer (1 M NaCl, 50 mM NaOH). Non-specific binding to a biotinylated mNotch1 peptide-bound streptavidin surface was subtracted from each curve (BIA-evaluation Version 3.0 software, Cytiva). Maximal response units for each injection were plotted using GraphPad Prism 5.0.
Assay [3] concerns wildtype RGS12 PDZ domain. The conditions noted are these: prior SPR assays; ref [19],[42],[65]; cited from earlier work. An excerpt:
Table 1 Heat map of GLIDE SP-peptide and GLIDE XP scores for predicted docking of four pentameric ligands into the ligand-binding “receptor grid” specified for each of the 20 low-energy structural models (“poses”) of the human RGS12 PDZ domain recorded within PDB id 2KV8. […] Each of the three C-tail ligands was synthesized as an N-terminally biotin-tagged polypeptide and used to create gold nanoparticle biosensors for measuring the binding of these recombinant GST-RGS12 PDZ domain fus ...
A general note: SPR reads the build-up and loss of mass on a sensor chip optically.

For assay [4], the system named is isolated rat RGS12 PDZ domain (recombinant GST-fusion protein). Further details: method as in PMID 9651375, PMID 17380122, PMID 11771424. Conditions: C-terminal tail peptide; ref [19],[42],[65]; cited from earlier work.
The target of assay [5] is T2, Wildtype human RGS12 PDZ domain GST-fusion protein (human, UniProt O14924 18-101).
T2 chain: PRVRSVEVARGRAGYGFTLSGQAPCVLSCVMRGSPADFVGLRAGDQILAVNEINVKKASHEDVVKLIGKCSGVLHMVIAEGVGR
The experiment in a line: SPR.

For assay [6], the target named is T3, R59Q-variant human RGS12 PDZ domain GST-fusion protein (human, UniProt O14924 18-101, R59Q).
T3 sequence: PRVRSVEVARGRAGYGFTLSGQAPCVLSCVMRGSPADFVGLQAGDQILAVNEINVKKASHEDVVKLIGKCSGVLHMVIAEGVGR
The experiment in a line: SPR.

In assay [7] the target is T2, Wildtype human RGS12 PDZ domain …. The experiment in a line: SPR.
The target of assay [8] is T3, R59Q-variant human RGS12 PDZ domain …. The experiment in a line: SPR. This is another data set of the same source.
In assay [9] the target is T4, Wildtype human RGS12 PDZ domain GST-fusion protein (human, UniProt O14924 18-101).
T4 construct: human RGS12 PDZ domain, aa 18-101 of UniProt O14924; also called GST-RGS12 PDZ domain fusion protein; wildtype PDZ protein; not shown: GST, N-terminal, kept
T4 sequence (looked up): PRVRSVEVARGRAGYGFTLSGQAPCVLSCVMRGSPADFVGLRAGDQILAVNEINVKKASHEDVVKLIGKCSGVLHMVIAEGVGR
The experiment in a line: SPR; Alto 8 × 2 digital microfluidics SPR (Nicoya); biotinylated peptides immobilised on streptavidin-coated gold nanosensors; GST-RGS12 PDZ fusion protein as analyte, single-cycle kinetics, 111 nM-9 μM; PBS pH 7.3 with 0.1% Tween 20, BSA, 3% glycerol; mNotch1 or rβ2AR reference sensor subtracted; 1:1 Langmuir model with mass transport limitation; apparent rates, estimated KD. The conditions noted are these: both partners purified.

In assay [10] the test system is HA-epitope tagged RGS12 full-length protein. The experiment in a line: Co-immunoprecipitation of RGS12 and SAPAP3 in HEK293T cells. In kind it is binding. The procedure:
Monolayer cultures of the immortalized human embryonic kidney cell line HEK293T (ATCC CRL-3216) were transfected at 75–90% confluence using FuGENE6 transfection reagent (Promega; Madison, WI, USA), according to the manufacturer’s instructions, with 0.5 μg of pcDNA3.1-Flag-SAPAP3 expression plasmid DNA and/or 0.5 μg of pcDNA3.1-HA-RGS12 expression plasmid DNA [103]. Forty-eight hours later, the transfected cells were lysed with ice-cold Triton-X lysis buffer (20 mM Tris-HCl pH 7.5, 150 mM NaCl, 1 mM EDTA, 1 mM EGTA, and 1% Triton X-100, supplemented with protease inhibitors). The lysates were clarified by centrifugation (16,000× g) and then incubated overnight at 4 °C with […] of HA- or Flag-epitope tag-specific antibody followed by precipitation with protein-A/G beads (Santa Cruz Biotechnology; Dallas, TX, USA). The beads were washed 3 times with ice-cold lysis buffer and the proteins were eluted in Laemmli buffer. The samples were resolved on 4–12% precast SDS-polyacrylamide gels (Novex/Invitrogen; ThermoFisher Scientific, Waltham, MA, USA), transferred to nitrocellulose, and immunoblotted with horseradish peroxidase (HRP)-conjugated primary antibodies to HA- or Flag-epitope tags and visualized by ECL chemiluminescence (GE Healthcare; Chicago, IL, USA).

No end group written: not given here. *: point of attachment. Biotin = O=C1N[C@H]2[C@H](CS[C@H]2CCCCC(=O)*)N1; Ahx = NCCCCCC(=O)O

Turning to “biotin-Ahx-RTLRLKQPSTPTRTAV-carboxylic acid [TRTAV-COOH of MEK2]”, in assay [1], the “KD of R59Q variant relative to wildtype (fold less than the wildtype)” value is “at least 2 fold” and the “maximal binding signal (Rmax), R59Q in comparison to wildtype” value is recorded as “less maximal binding signal (Rmax)”.
As to biotin-NH-SATESADSIEIYIPEAQSRL-amide, in assay [2], the “SPR binding of recombinant RGS12 PDZ domain (in words)” value is listed as “no appreciable binding”.
With “biotin-NH-SATESADSIEIYIPEAQTRL-carboxylic acid”, the “SPR binding of recombinant RGS12 PDZ domain (in words)” value in [2] is “bound specifically”.
Consider “biotin-Ahx-PSQITHIPEAFK-carboxylic acid [mouse Notch1]”, for which the “binding of negative control to RGS12 PDZ domain (in words)” value in assay [3] is “no demonstrable affinity”.
Take “biotin-Ahx-QGRNCNTNDSPL-carboxylic acid [rat beta2-adrenergic receptor]”: the “binding of negative control to RGS12 PDZ domain (in words)” value in assay [3] is “no demonstrable affinity”.
As to “VGSSSANTSTTL-OH [C-terminal tail of rat CXCR2, 12-mer]”, in assay [4], the “SPR binding to rat RGS12 PDZ domain (in words)” value is “direct and selective binding”.
Turning to “RTLRLKQPSTPTRTAV-OH [C-terminal tail of rat MEK2, 16-mer]”, the “SPR binding to rat RGS12 PDZ domain (in words)” value in assay [4] is “direct and selective binding”.

B1: CXCR2 C-terminal peptide, biotin-Ahx-VGSSSGHTSTTL-carboxylic acid (peptide)
peptide: {Biotin-Ahx}-VGSSSGHTSTTL-OH
SMILES: CC(C)C[C@H](NC(=O)[C@@H](NC(=O)[C@@H](NC(=O)[C@H](CO)NC(=O)[C@@H](NC(=O)[C@H](Cc1c[nH]cn1)NC(=O)CNC(=O)[C@H](CO)NC(=O)[C@H](CO)NC(=O)[C@H](CO)NC(=O)CNC(=O)[C@@H](NC(=O)CCCCCNC(=O)CCCC[C@@H]1SC[C@@H]2NC(=O)N[C@@H]21)C(C)C)[C@@H](C)O)[C@@H](C)O)[C@@H](C)O)C(=O)O
notes: C-terminus of CXCR2; also called CXCR2 C-tail peptide TSTTL-COOH; CXCR2 TSTTL-COOH biosensor; source: synthetic peptide (GenScript)
As a reminder, the koff is the rate constant with which the complex falls apart. Higher therefore signals a short-lived complex. The Kd is the free concentration of one partner at which half of the binding sites on the other are occupied at equilibrium, for simple one-to-one binding. B1: the koff in assay [5] was found to be 0.000542 s⁻¹; in assay [6] it was 0.00193 s⁻¹. Besides, the results for the Kd in assay [7] and in assay [8] were 450 nM and 1280 nM, respectively. In assay [9], the binding result is reported as “binds”.

B2: SAPAP3 C-terminal peptide, biotin-Ahx-IYIPEAQTRL-carboxylic acid (peptide)
peptide: {Biotin-Ahx}-IYIPEAQTRL-OH
SMILES: CC[C@H](C)[C@H](NC(=O)CCCCCNC(=O)CCCC[C@@H]1SC[C@@H]2NC(=O)N[C@@H]21)C(=O)N[C@@H](Cc1ccc(O)cc1)C(=O)N[C@H](C(=O)N1CCC[C@H]1C(=O)N[C@@H](CCC(=O)O)C(=O)N[C@@H](C)C(=O)N[C@@H](CCC(N)=O)C(=O)N[C@H](C(=O)N[C@@H](CCCNC(=N)N)C(=O)N[C@@H](CC(C)C)C(=O)O)[C@@H](C)O)[C@@H](C)CC
notes: C-terminus of SAPAP3; the last ten residues of the human 20-mer aa 960-979; also called SAPAP3 C-tail peptide AQTRL-COOH; source: synthetic peptide (GenScript)
Consider B2, for which the koff in assay [5] was 0.000383 s⁻¹; in assay [6], 0.00923 s⁻¹. Further, the figures for the dissociation constant (Kd) in assay [7] and in [8] were 260 nM and 600 nM, respectively. For the same molecule, the binding result in [9] is on record as “binds”.

B3: MEK2 C-terminal peptide, biotin-Ahx-RTLRLKQPSTPTRTAV-carboxylic acid (peptide)
peptide: {Biotin-Ahx}-RTLRLKQPSTPTRTAV-OH
SMILES: CC(C)C[C@H](NC(=O)[C@H](CCCNC(=N)N)NC(=O)[C@H](CC(C)C)NC(=O)[C@@H](NC(=O)[C@H](CCCNC(=N)N)NC(=O)CCCCCNC(=O)CCCC[C@@H]1SC[C@@H]2NC(=O)N[C@@H]21)[C@@H](C)O)C(=O)N[C@@H](CCCCN)C(=O)N[C@@H](CCC(N)=O)C(=O)N1CCC[C@H]1C(=O)N[C@@H](CO)C(=O)N[C@H](C(=O)N1CCC[C@H]1C(=O)N[C@H](C(=O)N[C@@H](CCCNC(=N)N)C(=O)N[C@H](C(=O)N[C@@H](C)C(=O)N[C@H](C(=O)O)C(C)C)[C@@H](C)O)[C@@H](C)O)[C@@H](C)O
notes: C-terminus of MEK2; also called MEK2 C-tail; TRTAV-COOH of MEK2; source: synthetic peptide (GenScript)
With B3, the binding result in [9] is “binds”.

B4: Flag-epitope tagged SAPAP3: Flag-epitope tagged SAPAP3 full-length protein expressed in HEK293T cells (protein, UniProt O95886 1-979, looked up)
chain: MRGYHGDRGSHPRPARFADQQHMDVGPAARAPYLLGSREAFSTEPRFCAPRAGLGHISPEGPLSLSEGPSVGPEGGPAGAGVGGGSSTFPRMYPGQGPFDTCEDCVGHPQGKGAPRLPPTLLDQFEKQLPVQQDGFHTLPYQRGPAGAGPGPAPGTGTAPEPRSESPSRIRHLVHSVQKLFAKSHSLEAPGKRDYNGPKAEGRGGSGGDSYPGPGSGGPHTSHHHHHHHHHHHHQSRHGKRSKSKDRKGDGRHQAKSTGWWSSDDNLDSDSGFLAGGRPPGEPGGPFCLEGPDGSYRDLSFKGRSGGSEGRCLACTGMSMSLDGQSVKRSAWHTMMVSQGRDGYPGAGPGKGLLGPETKAKARTYHYLQVPQDDWGGYPTGGKDGEIPCRRMRSGSYIKAMGDEESGDSDGSPKTSPKAVARRFTTRRSSSVDQARINCCVPPRIHPRSSIPGYSRSLTTGQLSDELNQQLEAVCGSVFGELESQAVDALDLPGCFRMRSHSYLRAIQAGCSQDDDCLPLLATPAAVSGRPGSSFNFRKAPPPIPPGSQAPPRISITAQSSTDSAHESFTAAEGPARRCSSADGLDGPAMGARTLELAPVPPRASPKPPTLIIKTIPGREELRSLARQRKWRPSIGVQVETISDSDTENRSRREFHSIGVQVEEDKRRARFKRSNSVTAGVQADLELEGLAGLATVATEDKALQFGRSFQRHASEPQPGPRAPTYSVFRTVHTQGQWAYREGYPLPYEPPATDGSPGPAPAPTPGPGAGRRDSWIERGSRSLPDSGRASPCPRDGEWFIKMLRAEVEKLEHWCQQMEREAEDYELPEEILEKIRSAVGSTQLLLSQKVQQFFRLCQQSMDPTAFPVPTFQDLAGFWDLLQLSIEDVTLKFLELQQLKANSWKLLEPKEEKKVPPPIPKKPLRGRGVPVKERSLDSVDRQRQEARKRLLAAKRAASFRHSSATESADSIEIYIPEAQTRL
modifications: full-length Flag epitope tag
As for B4, the co-immunoprecipitation result in assay [10] (IP with anti-Flag antibody, Triton-X lysis buffer pH 7.5) is reported as “co-immuno-precipitate”. The reciprocal co-immunoprecipitation result in assay [10] (IP with anti-HA antibody) was “reciprocal co-immunoprecipitation”.

Source of the values: publication PMC11546610, “Molecular Modeling and In Vitro Functional Analysis of the RGS12 PDZ Domain Variant Associated with High-Penetrance Familial Bipolar Disorder” (International Journal of Molecular Sciences, 2024).
